Data taken from PMC9312469.

Experiments:
[1] = molecular target: PH-YFP (isolated PLCδ1 PH domain linked to a yellow fluorescent protein variant that lacks the A206K mutation) (UniProt P51178); assay: fluorescence fluctuation spectroscopy (photon counting histogram); PH-YFP bound to POPC:PI(4,5)P2 (95:5) GUVs, 20 μM Ca2+; two-brightness population model
[2] = molecular target: PH-YFP (isolated PLCδ1 PH domain linked to a yellow fluorescent protein variant that lacks the A206K mutation) (UniProt P51178); assay: fluorescence fluctuation spectroscopy (photon counting histogram); PH-YFP bound to POPC:PI(4,5)P2 (95:5) GUVs, 50 μM Ca2+; two-brightness population model
[3] = molecular target: PH-YFP (isolated PLCδ1 PH domain linked to a yellow fluorescent protein variant that lacks the A206K mutation) (UniProt P51178); assay: fluorescence fluctuation spectroscopy (photon counting histogram); PH-YFP bound to POPC:PI(4,5)P2 (95:5) GUVs, 100 μM Ca2+; two-brightness population model
[4] = molecular target: PH-YFP (isolated PLCδ1 PH domain linked to a yellow fluorescent protein variant that lacks the A206K mutation) (UniProt P51178); assay: fluorescence fluctuation spectroscopy (photon counting histogram); PH-YFP bound to POPC:PI(4,5)P2 (95:5) GUVs, 5 mM EDTA (0 μM Ca2+); two-brightness population model
[5] = molecular target: PH-YFP (isolated PLCδ1 PH domain linked to a yellow fluorescent protein variant that lacks the A206K mutation) (UniProt P51178); assay: fluorescence fluctuation spectroscopy (photon counting histogram); PH-YFP bound to POPC:PI(4,5)P2 (95:5) GUVs, in the presence of Ca2+ (20, 50 and 100 μM taken together, on average); two-brightness population model

- F1 (Monomeric Population), fraction weighed by brightness [1]: 99.3%
- F2 (Oligomeric Population), fraction weighed by brightness [1]: 0.7%
- F1 (Monomeric Population), fraction weighed by brightness [2]: 82.5%
- F2 (Oligomeric Population), fraction weighed by brightness [2]: 17.5%
- F1 (Monomeric Population), fraction weighed by brightness [3]: 86.5%
- F2 (Oligomeric Population), fraction weighed by brightness [3]: 13.5%
- F1 (Monomeric Population), fraction weighed by brightness [4]: 71.3%
- F2 (Oligomeric Population), fraction weighed by brightness [4]: 28.7%
- brightness of the second population relative to the lower brightness (monomer) component [4]: 2.3 fold
- stoichiometry N [4]: 2
- fraction of particles in the second (oligomeric) population [5]: < 5%
Substance: PH-YFP (isolated PLCδ1 PH domain linked to a yellow fluorescent protein variant that lacks the A206K mutation) (from UniProt P51178 21-130)
